# From publication PMC4434323
# Columns and labels:
# [1] = system: T1, C34D1.1 (C34D1.1) (Caenorhabditis elegans)
# T1 sequence: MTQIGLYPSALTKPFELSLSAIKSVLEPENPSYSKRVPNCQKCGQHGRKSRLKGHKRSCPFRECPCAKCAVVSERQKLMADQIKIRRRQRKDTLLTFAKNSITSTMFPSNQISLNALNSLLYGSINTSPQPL
# [2] = molecular target: T2, Y48G1C.6 (Y48G1C.6) (Caenorhabditis elegans) (UniProt Q9N3P2)
# T2 sequence: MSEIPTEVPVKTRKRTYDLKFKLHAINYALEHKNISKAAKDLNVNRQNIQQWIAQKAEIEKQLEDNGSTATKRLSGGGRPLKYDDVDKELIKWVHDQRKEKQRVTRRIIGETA
# [3] = molecular target: dmd-5 (F10C1.5) (Caenorhabditis elegans) (UniProt Q19291)
# [4] = molecular target: T3, dmd-6 (F13G11.1) (Caenorhabditis elegans) (UniProt O62159)
# T3 sequence: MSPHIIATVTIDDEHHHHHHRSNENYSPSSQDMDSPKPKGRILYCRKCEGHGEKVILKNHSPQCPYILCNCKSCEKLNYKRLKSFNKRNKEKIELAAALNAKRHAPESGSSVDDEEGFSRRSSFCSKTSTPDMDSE
# [5] = molecular target: T4, T22H9.4 (T22H9.4) (Caenorhabditis elegans) (UniProt Q9TXN8)
# T4 sequence: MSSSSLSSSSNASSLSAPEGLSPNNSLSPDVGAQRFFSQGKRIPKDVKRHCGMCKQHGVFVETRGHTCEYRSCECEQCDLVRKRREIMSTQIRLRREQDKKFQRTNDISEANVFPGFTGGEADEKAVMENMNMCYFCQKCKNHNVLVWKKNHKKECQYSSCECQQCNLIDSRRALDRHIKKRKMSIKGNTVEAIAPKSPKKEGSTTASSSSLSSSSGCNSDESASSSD
# [6] = molecular target: dmd-4 (C27C12.6) (Caenorhabditis elegans) (UniProt Q18248)
# [7] = molecular target: ztf-11 (F52F12.6) (Caenorhabditis elegans) (UniProt O02274)
# ztf-11 (F52F12.6) (Caenorhabditis elegans), sequence (O02274 212-388): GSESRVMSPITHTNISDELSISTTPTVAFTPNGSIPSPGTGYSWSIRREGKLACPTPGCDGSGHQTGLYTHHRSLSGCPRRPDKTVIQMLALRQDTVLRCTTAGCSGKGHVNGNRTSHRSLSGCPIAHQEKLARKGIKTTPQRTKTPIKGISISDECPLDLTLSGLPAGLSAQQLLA
# dmd-5 (F10C1.5) (Caenorhabditis elegans), sequence (Q19291 1-125): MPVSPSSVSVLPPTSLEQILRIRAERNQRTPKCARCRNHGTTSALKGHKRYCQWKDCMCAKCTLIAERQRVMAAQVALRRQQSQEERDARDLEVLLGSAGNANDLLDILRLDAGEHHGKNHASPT
# dmd-4 (C27C12.6) (Caenorhabditis elegans), sequence (Q18248 1-114): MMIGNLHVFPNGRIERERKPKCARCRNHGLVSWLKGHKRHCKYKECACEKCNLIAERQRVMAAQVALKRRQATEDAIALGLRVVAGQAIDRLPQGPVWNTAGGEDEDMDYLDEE
sequence,measurement,setting,value
GTGAAACA (double strand) [8-mer GTGAAACA],binding signal (PBM E-score (-0.5 to 0.5)),[1],0.484
ACTTGCAT (double strand) [8-mer ACTTGCAT],binding signal (PBM E-score (-0.5 to 0.5)),[2],0.493
ATTGTTTC (double strand) [8-mer ATTGTTTC],binding signal (PBM E-score (-0.5 to 0.5)),[1],0.487
ATTGTAAC (double strand) [8-mer ATTGTAAC],binding signal (PBM E-score (-0.5 to 0.5)),[3],0.481
AAATTTAT (double strand) [8-mer AAATTTAT],binding signal (PBM E-score (-0.5 to 0.5)),[4],0.479
ATTTTAAC (double strand) [8-mer ATTTTAAC],binding signal (PBM E-score (-0.5 to 0.5)),[5],0.491
ATGCAAGA (double strand) [8-mer ATGCAAGA],binding signal (PBM E-score (-0.5 to 0.5)),[2],0.495
TGTCGAAA (double strand) [8-mer TGTCGAAA],binding signal (PBM E-score (-0.5 to 0.5)),[5],0.495
ATAGTTTC (double strand) [8-mer ATAGTTTC],binding signal (PBM E-score (-0.5 to 0.5)),[1],0.47
AACTTGCA (double strand) [8-mer AACTTGCA],binding signal (PBM E-score (-0.5 to 0.5)),[2],0.494
ACTTGCAG (double strand) [8-mer ACTTGCAG],binding signal (PBM E-score (-0.5 to 0.5)),[2],0.494
TGTTTCAA (double strand) [8-mer TGTTTCAA],binding signal (PBM E-score (-0.5 to 0.5)),[1],0.485
CATGTATC (double strand) [8-mer CATGTATC],binding signal (PBM E-score (-0.5 to 0.5)),[6],0.483
ATCTTGCA (double strand) [8-mer ATCTTGCA],binding signal (PBM E-score (-0.5 to 0.5)),[2],0.495
AAATTTTA (double strand) [8-mer AAATTTTA],binding signal (PBM E-score (-0.5 to 0.5)),[4],0.477
AAGATACA (double strand) [8-mer AAGATACA],binding signal (PBM E-score (-0.5 to 0.5)),[6],0.477
AAAAAGTT (double strand) [8-mer AAAAAGTT],binding signal (PBM E-score (-0.5 to 0.5)),[4],0.484
AGTGCAAG (double strand) [8-mer AGTGCAAG],binding signal (PBM E-score (-0.5 to 0.5)),[2],0.493
GTGCAAGA (double strand) [8-mer GTGCAAGA],binding signal (PBM E-score (-0.5 to 0.5)),[2],0.494
CTGCAAGA (double strand) [8-mer CTGCAAGA],binding signal (PBM E-score (-0.5 to 0.5)),[2],0.494
TGAAACAA (double strand) [8-mer TGAAACAA],binding signal (PBM E-score (-0.5 to 0.5)),[1],0.485
TGTTAAAA (double strand) [8-mer TGTTAAAA],binding signal (PBM E-score (-0.5 to 0.5)),[5],0.496
TGTTGAAA (double strand) [8-mer TGTTGAAA],binding signal (PBM E-score (-0.5 to 0.5)),[5],0.499
AAAGTATC (double strand) [8-mer AAAGTATC],binding signal (PBM E-score (-0.5 to 0.5)),[6],0.492
GTTGAAAA (double strand) [8-mer GTTGAAAA],binding signal (PBM E-score (-0.5 to 0.5)),[5],0.495
ACAGTTGC (double strand) [8-mer ACAGTTGC],binding signal (PBM E-score (-0.5 to 0.5)),[3],0.489
ATTTCAAC (double strand) [8-mer ATTTCAAC],binding signal (PBM E-score (-0.5 to 0.5)),[5],0.497
CATGCAAG (double strand) [8-mer CATGCAAG],binding signal (PBM E-score (-0.5 to 0.5)),[2],0.496
AAATATTT (double strand) [8-mer AAATATTT],binding signal (PBM E-score (-0.5 to 0.5)),[4],0.482
ACTGTATC (double strand) [8-mer ACTGTATC],binding signal (PBM E-score (-0.5 to 0.5)),[3],0.484
ACTGCAAG (double strand) [8-mer ACTGCAAG],binding signal (PBM E-score (-0.5 to 0.5)),[2],0.493
ACAGTAAC (double strand) [8-mer ACAGTAAC],binding signal (PBM E-score (-0.5 to 0.5)),[3],0.482
ACTGTAAC (double strand) [8-mer ACTGTAAC],binding signal (PBM E-score (-0.5 to 0.5)),[3],0.49
ATTCAACA (double strand) [8-mer ATTCAACA],binding signal (PBM E-score (-0.5 to 0.5)),[5],0.49
CATGTTTC (double strand) [8-mer CATGTTTC],binding signal (PBM E-score (-0.5 to 0.5)),[1],0.469
AAACATTT (double strand) [8-mer AAACATTT],binding signal (PBM E-score (-0.5 to 0.5)),[1],0.473
ATGTATCA (double strand) [8-mer ATGTATCA],binding signal (PBM E-score (-0.5 to 0.5)),[3],0.486
same,binding signal (PBM E-score (-0.5 to 0.5)),[6],0.493
ATGATACA (double strand) [8-mer ATGATACA],binding signal (PBM E-score (-0.5 to 0.5)),[6],0.485
CCTGCAAG (double strand) [8-mer CCTGCAAG],binding signal (PBM E-score (-0.5 to 0.5)),[2],0.493
AAATGTTA (double strand) [8-mer AAATGTTA],binding signal (PBM E-score (-0.5 to 0.5)),[4],0.475
AGTGTTTC (double strand) [8-mer AGTGTTTC],binding signal (PBM E-score (-0.5 to 0.5)),[1],0.47
ACTGTTGC (double strand) [8-mer ACTGTTGC],binding signal (PBM E-score (-0.5 to 0.5)),[3],0.488
TGATACAA (double strand) [8-mer TGATACAA],binding signal (PBM E-score (-0.5 to 0.5)),[6],0.489
GTTGCAAA (double strand) [8-mer GTTGCAAA],binding signal (PBM E-score (-0.5 to 0.5)),[5],0.493
AAAATTTA (double strand) [8-mer AAAATTTA],binding signal (PBM E-score (-0.5 to 0.5)),[4],0.471
AATTGTTA (double strand) [8-mer AATTGTTA],binding signal (PBM E-score (-0.5 to 0.5)),[3],0.478
ATTGTTAC (double strand) [8-mer ATTGTTAC],binding signal (PBM E-score (-0.5 to 0.5)),[3],0.476
ATTGCAAC (double strand) [8-mer ATTGCAAC],binding signal (PBM E-score (-0.5 to 0.5)),[5],0.493
GATACATA (double strand) [8-mer GATACATA],binding signal (PBM E-score (-0.5 to 0.5)),[6],0.482
TAGATACA (double strand) [8-mer TAGATACA],binding signal (PBM E-score (-0.5 to 0.5)),[6],0.491
TGTTACAA (double strand) [8-mer TGTTACAA],binding signal (PBM E-score (-0.5 to 0.5)),[3],0.484
same,binding signal (PBM E-score (-0.5 to 0.5)),[5],0.488
GAAACATA (double strand) [8-mer GAAACATA],binding signal (PBM E-score (-0.5 to 0.5)),[1],0.488
TGTATCAA (double strand) [8-mer TGTATCAA],binding signal (PBM E-score (-0.5 to 0.5)),[3],0.49
same,binding signal (PBM E-score (-0.5 to 0.5)),[6],0.496
AAAGTTTG (double strand) [8-mer AAAGTTTG],binding signal (PBM E-score (-0.5 to 0.5)),[7],0.494
AATGTATC (double strand) [8-mer AATGTATC],binding signal (PBM E-score (-0.5 to 0.5)),[3],0.485
same,binding signal (PBM E-score (-0.5 to 0.5)),[6],0.494
ACTTGCAC (double strand) [8-mer ACTTGCAC],binding signal (PBM E-score (-0.5 to 0.5)),[2],0.495
AAACTTGC (double strand) [8-mer AAACTTGC],binding signal (PBM E-score (-0.5 to 0.5)),[7],0.485
ATGTTACA (double strand) [8-mer ATGTTACA],binding signal (PBM E-score (-0.5 to 0.5)),[3],0.475
AACTTTTG (double strand) [8-mer AACTTTTG],binding signal (PBM E-score (-0.5 to 0.5)),[7],0.48
CAAACTTG (double strand) [8-mer CAAACTTG],binding signal (PBM E-score (-0.5 to 0.5)),[7],0.487
TGTAACAA (double strand) [8-mer TGTAACAA],binding signal (PBM E-score (-0.5 to 0.5)),[3],0.484
same,binding signal (PBM E-score (-0.5 to 0.5)),[6],0.483
AAGTTTGG (double strand) [8-mer AAGTTTGG],binding signal (PBM E-score (-0.5 to 0.5)),[7],0.485
AAGTTTGT (double strand) [8-mer AAGTTTGT],binding signal (PBM E-score (-0.5 to 0.5)),[7],0.487
CGTTGCAA (double strand) [8-mer CGTTGCAA],binding signal (PBM E-score (-0.5 to 0.5)),[5],0.488
AGATACAT (double strand) [8-mer AGATACAT],binding signal (PBM E-score (-0.5 to 0.5)),[6],0.492
GTCTTGCA (double strand) [8-mer GTCTTGCA],binding signal (PBM E-score (-0.5 to 0.5)),[2],0.494
AAGTTTGC (double strand) [8-mer AAGTTTGC],binding signal (PBM E-score (-0.5 to 0.5)),[7],0.483
ATTGTATC (double strand) [8-mer ATTGTATC],binding signal (PBM E-score (-0.5 to 0.5)),[3],0.486
same,binding signal (PBM E-score (-0.5 to 0.5)),[6],0.491
AAAAGTTA (double strand) [8-mer AAAAGTTA],binding signal (PBM E-score (-0.5 to 0.5)),[4],0.486
ATGAAACA (double strand) [8-mer ATGAAACA],binding signal (PBM E-score (-0.5 to 0.5)),[1],0.486
TGTAGAAA (double strand) [8-mer TGTAGAAA],binding signal (PBM E-score (-0.5 to 0.5)),[5],0.489
GTTAAAAA (double strand) [8-mer GTTAAAAA],binding signal (PBM E-score (-0.5 to 0.5)),[5],0.494
GCATGCAA (double strand) [8-mer GCATGCAA],binding signal (PBM E-score (-0.5 to 0.5)),[2],0.496
CTTGCACC (double strand) [8-mer CTTGCACC],binding signal (PBM E-score (-0.5 to 0.5)),[2],0.494
